Consider two molecules from publication PMC10897342, “An octameric PqiC toroid stabilises the outer-membrane interaction of the PqiABC transport system” (EMBO Reports, 2024).

Data set [1] concerns the target T1, PqiAB subcomplex (PqiA residues 1–417 and PqiB residues 1–546, C-terminal hexa-histidine tag) (E. coli, UniProt P0AFL9 1-417; P43671 1-546).
T1 construct: PqiA, integral inner membrane protein of E. coli, residues 1–417; PqiB, periplasm-spanning MCE family protein of E. coli, residues 1–546; also called purified PqiAB subcomplex; PqiAB-proteoliposomes; copies: + 6
T1 sequence (looked up) 1: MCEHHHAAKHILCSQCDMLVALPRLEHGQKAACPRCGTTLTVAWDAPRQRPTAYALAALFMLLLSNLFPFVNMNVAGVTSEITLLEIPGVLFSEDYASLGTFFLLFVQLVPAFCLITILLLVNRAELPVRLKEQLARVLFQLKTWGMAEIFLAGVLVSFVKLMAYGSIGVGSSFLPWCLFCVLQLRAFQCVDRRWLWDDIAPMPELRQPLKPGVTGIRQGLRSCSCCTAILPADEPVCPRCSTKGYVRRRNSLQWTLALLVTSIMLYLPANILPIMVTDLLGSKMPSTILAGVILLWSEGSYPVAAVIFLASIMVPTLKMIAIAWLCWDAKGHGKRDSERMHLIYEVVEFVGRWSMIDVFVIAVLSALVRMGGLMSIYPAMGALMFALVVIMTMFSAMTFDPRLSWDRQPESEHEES
T1 sequence (looked up) 2: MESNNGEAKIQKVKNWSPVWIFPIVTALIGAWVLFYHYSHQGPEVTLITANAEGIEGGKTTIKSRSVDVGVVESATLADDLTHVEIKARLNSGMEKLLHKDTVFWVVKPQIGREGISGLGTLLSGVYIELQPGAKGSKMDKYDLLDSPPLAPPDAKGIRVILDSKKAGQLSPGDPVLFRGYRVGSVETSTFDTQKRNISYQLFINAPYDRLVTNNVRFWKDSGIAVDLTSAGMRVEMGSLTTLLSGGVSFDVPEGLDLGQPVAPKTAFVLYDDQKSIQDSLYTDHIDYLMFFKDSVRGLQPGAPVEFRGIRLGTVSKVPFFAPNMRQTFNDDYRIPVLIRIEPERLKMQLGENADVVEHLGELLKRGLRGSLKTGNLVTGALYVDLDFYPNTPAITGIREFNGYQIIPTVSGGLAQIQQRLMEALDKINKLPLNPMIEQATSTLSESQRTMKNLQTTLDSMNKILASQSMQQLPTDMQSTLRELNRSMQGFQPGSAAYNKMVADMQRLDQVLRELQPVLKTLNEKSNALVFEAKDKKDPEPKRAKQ
Description: neutron reflectometry; PqiC in a supported dDMPC bilayer on silicon; PqiAB-DMPC proteoliposomes (0.01 mg/mL PqiAB) incubated 30 minutes, washed; 20 mM BTP, 150 mM NaCl, pH 8.5; 25 °C; isotopic contrast variation. Conditions: both partners purified.

The target of data set [2] is T2, PqiB (residues 1–546) with a C-terminal hexa-histidine tag, of the PqiAB construct (E. coli, UniProt P43671 1-546).
T2 construct: PqiB, periplasm-spanning MCE family protein of E. coli, residues 1–546; Always present together with PqiA in the experiments; also called hexameric PqiB; source: E. coli C43 (DE3), co-expressed with PqiA, purified (Ni-NTA, SEC) in DDM, reconstituted into DMPC proteoliposomes; not shown: His6, C-terminal, kept
T2 sequence (looked up): T1 sequence (looked up) 2
As to the kind of experiment: QCM-D; PqiC-Strep in a supported DMPC bilayer on a silicon sensor; PqiAB-DMPC proteoliposomes flowed over, then buffer; 25 °C, 0.1 mL/min; 20 mM Bis-Tris Propane, 150 mM NaCl, pH 8.5. Conditions: both partners purified.

Data set [3] concerns the molecule itself. As to the kind of experiment: crystal structure; PqiC-His in DDM; 3.2 Å; two chains in the asymmetric unit, octameric toroid by the symmetry of the unit cell; interface analysed with PDBePISA.

The term stoichiometry N denotes a count of units in the complex or per binding partner.

B1: PqiC-Strep, E. coli PqiC residues 1–186 with a C-terminal StrepTag II (natural protein, UniProt P0AB10 16-186, looked up)
chain: CSSGEINKNYYQLPVVQSGTQSTASQGNRLLWVEQVTVPDYLAGNGVVYQTSDVKYVIANNNLWASPLDQQLRNTLVANLSTQLPGWVVASQPLGSAQDTLNVTVTEFNGRYDGKVIVSGEWLLNHQGQLIKRPFRLEGVQTQDGYDEMVKVLAGVWSQEAASIAQEIKRL
modifications: lipidation of Cys16 (the paper: 'a native PqiC construct was used')
notes: signal peptide in the construct; Stood in a supported DMPC bilayer on a silicon surface; also called PqiC (in QCM-D and NR); surface-tethered PqiC octamer
For B1, the binding result in data set [1] and in data set [2] was “binds” throughout.

B2: E. coli PqiC (residues 1–187) with a C-terminal hexa-histidine tag (natural protein, UniProt P0AB10 16-187, looked up)
chain: CSSGEINKNYYQLPVVQSGTQSTASQGNRLLWVEQVTVPDYLAGNGVVYQTSDVKYVIANNNLWASPLDQQLRNTLVANLSTQLPGWVVASQPLGSAQDTLNVTVTEFNGRYDGKVIVSGEWLLNHQGQLIKRPFRLEGVQTQDGYDEMVKVLAGVWSQEAASIAQEIKRLP
modifications: N-terminally acylated Cysteine (C16); the construct is 'presumably processed and lipidated in the same manner as the native lipoprotein'
notes: signal peptide in the construct; the N-terminal signal peptide is called residues 1–16 in the methods, while the mature lipoprotein is said to begin at the acylated C16; Octamer by the crystal's symmetry (two chains in the asymmetric unit); also called native PqiC; full length PqiC; source: E. coli C43 (DE3), membrane fraction solubilised in DDM, purified (Ni-NTA, SEC)
On to B2, for which the “stoichiometry N” value in data set [3] turned out to be 8.
